Biological target: human glypican-3 (GPC3) on the cell surface (human), P51654
Assay: cell-based or functional assay

lytic activity against Hep3B cells at E:T ratio of 5 (HCC patient-derived T cells): 30 to 70%
lytic activity against Hep3B cells at E:T ratio of 5 (HCC patient-derived T cells), average: 50%
lytic activity against Hep3B cells at E:T ratio of 5 (healthy donor-derived T cells), average: 90%
B1: CAR.hYP7 (GPC3-targeted chimeric antigen receptor with humanized YP7 scFv, CD8α hinge and TM, 4-1BB, CD3ζ) (protein)
chain: HMEVQLVESGGGLVQPGGSLRLSCAASGFTFNKNAMNWVRQAPGKGLEWVGRIRNKTNNYATYYADSVKARFTISRDDSKNSLYLQMNSLKTEDTAVYYCVAGNSFAYWGQGTLVTVSAGGGGSGGGGSGGGGSDIVMTQSPDSLAVSLGERATINCKSSQSLLYSSNQKNYLAWYQQKPGQPPKLLIYWASSRESGVPDRFSGSGSGTDFTLTISSLQAEDVAVYYCQQYYNYPLTFGQGTKLEIKTSTTTPAPRPPTPAPTIASQPLSLRPEACRPAAGGAVHTRGLDFACDIYIWAPLAGTCGVLLLSLVITKRGRKKLLYIFKQPFMRPVQTTQEEDGCSCRFPEEEEGGCELRVKFSRSADAPAYQQGQNQLYNELNLGRREEYDVLDKRRGRDPEMGGKPRRKNPQEGLYNELQKDKMAEAYSEIGMKGERRRGKGHDGLYQGLSTATKDTYDALHMQALPPR

Source: US20210371542A1
